This assay deals with T1, recombinant NS1 protein from Zika virus MR766 (Zika virus MR766 (Rhesus/1947/Uganda)).
T1 construct: also called MR766 NS1; NS1 from MR766; source: Expi293 cells transfected with pCAGGS-MR766-NS1, purified from the supernatant (Ni-NTA)
Briefly: ELISA; plates coated with recombinant ZIKV NS1 at 2 μg per mL in pH 9.41 carbonate buffer overnight at 4 °C; mAbs from 10 μg per mL, serially diluted 3-fold, 2 h at room temperature; detected with HRP-conjugated goat anti-human IgG. The following applies: both partners purified.

B1: AA12 LALAPG (antibody, V domains shown)
VH: EVQLVESGGGLIQPGGSLRLSCAASGFTVSSNYMSWVRQAPGKGLEWVSVIYSGGSTYYADSVKGRFTISRDNSKNTLYLQMNSLRAEDTAVYYCARDRRGFDYWGQGTMVTVSS
VL: DIQMTQSPLSLSASVGDRVTITCRTSQSISSYLNWYQQKPGKAPKLLIYAASSLQSGVPSRFSGSGSGTDFTLTISSLQPEDFATYYCQQTYSTPLTFGGGTKVEIK
notes: also called mutated form of AA12; mutant AA12 mAb
On to B1, for which the binding result was “binds”.
